Assay results reported in article doi:10.1101/2022.11.01.514793.

Tests used:
[1] = biological target: AdgH (Variovorax); assay: cryo-EM structure
[2] = biological target: AdgI (Variovorax); assay: cryo-EM structure
[3] = biological target: AdgH (Variovorax); assay: SEC

## AdgH (enzyme)
[1]
  stoichiometry N: 3

## AdgI (enzyme)
[2]
  stoichiometry N: 3
[3]
  stoichiometry N (AdgI:AdgH molar ratio): 1
